The record followed here is doi:10.1101/2022.05.24.493195 (bioRxiv, 2022).

In the experiment the target is T161 phosphorylated CDK1 (full-length human CDK1) (human, UniProt P06493 1-297, phosphothreonine at T161). As to the kind of experiment: SEC.

B1: Human cyclin B1, residues 165-433 carrying the C167S/C238S/C350S mutations (domain or fragment)
chain: NLSSEYVKDIYAYLRQLEEEQAVRPKYLLGREVTGNMRAILIDWLVQVQMKFRLLQETMYMTVSIIDRFMQNNSVPKKMLQLVGVTAMFIASKYEEMYPPEIGDFAFVTDNTYTKHQIRQMEMKILRALNFGLGRPLPLHFLRRASKIGEVDVEQHTLAKYLMELTMLDYDMVHFPPSQIAAGAFSLALKILDNGEWTPTLQHYLSYTEESLLPVMQHLAKNVVMVNQGLTKHMTVKNKYATSKHAKISTLPQLNSALVQDLAKAVAKV
For the molecule B1, the binding result is listed as “binds”.
